The text below walks through data of PMC7265302 (Nature Communications, 2020).

The experiment deals with MavC (residues 1–385, [change]) (Legionella pneumophila, UniProt Q5ZTL4 1-385). Briefly: crystal structure. The settings on record: both partners purified.

B1: UBE2N (K94A), the UBE2N moiety of the conjugated UBE2N~Ub (enzyme)
chain: MAGLPRRIIKETQRLLAEPVPGIKAEPDESNARYFHVVIAGPQDSPFEGGTFKLELFLPEEYPMAAPKVRFMTKIYHPNVDKLGRICLDILKDAWSPALQIRTVLLSIQALLSAPNPDDPLANDVAEQWKTNEAQAIETARAWTRLYAMNNI
notes: UBE2N, human E2 enzyme
Regarding B1, the binding result is given as “binds”.
